Consider one molecule from publication PMC5224880, “Discovery and Molecular Basis of a Diverse Set of Polycomb Repressive Complex 2 Inhibitors Recognition by EED” (PLoS ONE, 2017).

The target of the test is T1, EED, comprising residues 76–441 (TEV-cleaved, used for crystallization) (human, UniProt O75530 76-441).
T1 construct: EED (embryonic ectoderm development), human, residues 76-441, cloned into pGEX-KG; The EED in PDB 5H13 (no EZH2 peptide) was cleaved with thrombin instead of TEV; also called embryonic ectoderm development; TEV-cleaved EED protein; source: E. coli BL21-CodonPlus(DE3)-RIL, purified (Glutathione Sepharose 4B, TEV cleavage, Ni2+-NTA flow-through, Superdex 75); not shown: GST, N-terminal, cleaved
Nature of the test: crystal structure; TEV-cleaved EED (76-441) mixed with EZH2 peptide at molar ratio 1:2.5; EED-EBD crystals soaked with EED709, EED666 or EED210 (0.1 M Tris pH 8.0, 16% PEG 8000, 20°C) or co-crystallised with EED162 (0.1 M Bis-Tris pH 6.0, 0.2 M MgCl2, 20% PEG 3350). The following applies: both partners purified.

T1 sequence (O75530 76-441): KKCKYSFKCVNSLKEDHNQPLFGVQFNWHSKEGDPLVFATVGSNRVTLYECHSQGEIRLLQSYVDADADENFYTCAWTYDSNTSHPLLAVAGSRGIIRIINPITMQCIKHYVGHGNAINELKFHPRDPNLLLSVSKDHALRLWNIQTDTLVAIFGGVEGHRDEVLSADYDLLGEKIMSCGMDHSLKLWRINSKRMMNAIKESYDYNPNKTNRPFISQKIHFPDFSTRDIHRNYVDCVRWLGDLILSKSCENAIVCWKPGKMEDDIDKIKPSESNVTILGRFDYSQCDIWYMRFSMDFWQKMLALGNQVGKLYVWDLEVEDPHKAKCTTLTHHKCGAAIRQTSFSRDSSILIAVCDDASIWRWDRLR

B1: EZH2 peptide (residues 40–68, EBD) (peptide)
peptide: KSMFSSNRQKILERTEILNQEWKQRRIQPV
notes: EZH2 (Enhancer of zeste homolog 2), human; Printed as NH2-...-CO2H (free ends); also called EBD peptide; EZH2 peptide (40–68); source: synthetic peptide (GL Biochem)
In the case of B1, the binding result is listed as “binds”.
